Read-outs that look alike come from different tables or passages of the source.

One data set deals with Asp105 (UniProt position 105, GLVVYDYQQLL). The data set can be described thus: CD spectroscopy. The note with it: 25 °C; Free folded domain, 4.2-10 µmol/L protein.
For data set [1], the target named is rh wildtype Bri2 BRICHOS (human) (UniProt Q9Y287). As to the kind of experiment: SEC. A general note: In gel filtration, larger molecules generally elute earlier.
For data set [2] the target is unchanged. The data set can be described thus: SEC. The source holds these as a separate data set.

Turning to “Prosurfactant protein C (proSP-C) BRICHOS domain, wild type (Homo sapiens)”, in the data set with Asp105, the pKa result is “about 6.1”.

For “rh wildtype Bri2 BRICHOS (from UniProt Q9Y287 113-231) (domain or fragment)”, the stoichiometry N in data set [1] and in data set [2] was 2 each time.

The values are drawn from doi:10.1101/2021.12.01.470723.
